Test results: patent US8598127B2, “Peptides for inhibiting MDM2 function” (Korea Research Institute of Bioscience & Biotechnology, priority 2004, dated 2013)
Where no end group is shown, it is not given here.

Tests used:
mdm2(3-109) = target: T1, mdm2(3-109) (Homo sapiens, UniProt Q00987); test: Chemical shift perturbation experiment (15N-1H HSQC NMR titration of 15N-mdm2(3-109) with p53 TAD or fragment peptides); format: binding; settings: 0.2 mM 15N-mdm2(3-109), 25° C.; for binding affinity to mdm2 as indicated by chemical shift perturbation: 15N-1H HSQC titration
T1 construct: made in house; host or cells: E. coli BL21(DE3), pLM1 vector
Protocol: All NMR data were measured using a Varian Unity INOVA 600 MHz NMR spectrometer at 5° C. and 25° C. ^15N—^1H HSQC (heteronuclear single quantum coherence spectroscopy) spectra were collected with spectral widths of 8000 Hz in the ^1H dimension and 1800 Hz in the ^15N dimension, and with 1024 data points in the t2 domain and 256 data points in the t1 domain.
Also, ^15N—^1H HSQC spectra were collected for the ^15N-labeled mdm2(3-109) protein, dissolved in a buffer solution of 25 mM Tris HCl (pH 7.5), 150 mM NaCl, 2 mM DTT, 0.1 mM PMSF, 0.1 mM EDTA, 0.1 mM benzamidine and 0.02% NaN3, at 0.2 mM of ^15N-mdm2(3-109) and 25° C.
First, HSQC spectra of ^15N-mdm2(3-109) in a free state were collected (FIG. 4). […] Chemical shift assignments of mdm2(3-109) in a free and bound states were performed using 3D NMR experiments, HNCA, HNCOCA, ^15N-edited TOCSY and ^15N-edited NOESY spectrum analysis.
2D ^15N—^1H HSQC spectra were collected for the free (unbound) form of purified ^15N-labeled mdm2(3-109).

[1] = test system: Carcinoma cell lines, MCF-7, HCT 11 6, A549 and SNU-71; test: MTT assay, induction of apoptosis of cancer cells; format: cell-based; settings: cancer cells treated for 18 hrs
Protocol: Carcinoma cell lines, MCF-7, HCT 11 6, A549 and SNU-71, were cultured in RPMI 1640 medium supplemented with 10% FBS and 100 U/ml penicillin/streptomycin in a humidified 5% CO2 incubator (Gibco-BRL, UK) at 37° C. The cultured cancer cells were treated for 18 hrs with HIV-1 Tat(48-60)-p53 TAD(50-54), an alanine-substituted peptide of SEQ ID NO. 7 and a trytophane-substituted peptide of SEQ ID NO. 11. Then, induction of apoptosis of cancer cells was determined by an MTT assay using the tetrazolium salt, 3-(4,5-dimethylthiazol-2-yl)-2,5-diphenyltetrazolium bromide (MTT). In the MTT assay, after the cancer cells were incubated for 2 hrs in RPMI 1640 medium supplemented with 10% FBS and 0.5 mg/ml MTT, the medium was removed, and 100 μl of DMSO was added.
Four carcinoma cell lines were treated for 18 hrs with HIV-1 Tat(48-60)-p53 TAD(50-54), which was prepared by linking a cell permeable peptide HIV-1 Tat(48-60) consisting of amino acid residues 48-60 of the HIV-1 Tat protein of SEQ ID NO. 22 to the N-terminal end of p53 TAD(50-54), and alanine-substituted and trytophane-substituted peptides thereof. Then, the induction of apoptosis of cancer cells was determined by an MTT assay, and the cancer cells were microscopically observed.

binding affinity to mdm2 as indicated by chemical shift perturbation (mdm2(3-109))	changes in chemical shift of 15N-mdm2(3-109) after addition of the peptide (mdm2(3-109); 15N-1H HSQC)	Substance	effect on apoptosis induction in cancer cells [1]
high affinity		p53 TAD(1-73): recombinant p53 TAD domain corresponding to residues 1-73 of the TAD of human p53	
		DWEQWW	greatly higher activity in inducing apoptosis than the native DIEQWF
		DAEQAA	unable to induce apoptosis in cancer cells
		DIEQWF-NH2 [p53 TAD(49-54), DIEQWF]	effectively induces apoptosis
low binding affinity to mdm2	small change in chemical shift	DVEQVV (DVEQVV-NH2) [Val-substituted peptide having I50V/W53V/F54V substitutions relative to the native p53(49-54) peptide]	
